Reference: US20210055300A1 (EISAI R AND D MANAGEMENT, published 2021)
Substitutions are numbered along the chain they refer to.

Experiments:
[1] = target: T1, refolded rhAPOA4-His monomer (human, UniProt P06727 21-396); test: ELISA, antigen captured by anti-6xHis antibody, hybridoma supernatant
T1 construct: not shown: C-terminal histidine tag
T1 sequence: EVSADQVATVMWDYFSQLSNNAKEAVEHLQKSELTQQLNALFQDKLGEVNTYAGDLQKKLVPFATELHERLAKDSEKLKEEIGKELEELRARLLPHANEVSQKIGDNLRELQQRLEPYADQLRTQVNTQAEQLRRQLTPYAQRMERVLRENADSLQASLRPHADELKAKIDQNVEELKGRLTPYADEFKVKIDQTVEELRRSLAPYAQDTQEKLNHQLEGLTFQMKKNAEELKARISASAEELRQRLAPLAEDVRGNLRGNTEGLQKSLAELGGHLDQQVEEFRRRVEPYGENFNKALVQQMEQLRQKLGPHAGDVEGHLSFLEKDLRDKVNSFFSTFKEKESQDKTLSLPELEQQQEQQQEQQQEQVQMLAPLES
Method: Using the culture supernatant of the hybridoma obtained in (1), the reactivity to rhAPOA4-His was evaluated by ELISA as follows.
50 μL/well of a 50 mM Tris buffer (pH 7.5) containing 2 μg/mL of an anti-6×His rabbit polyclonal antibody (anti-6×His antibody, manufactured by Bethyl Laboratories) was added to a 96-well plate (manufactured by Nunc), and incubation was performed at 4° C. overnight. After removing the anti-6×His antibody solution, blocking was performed by adding 100 μL/well of 50 mM Tris-buffered saline solution (pH 7.5) containing 0.01% Tween 20 and 5% skim milk, and the plate was left at room temperature for 1 hour. After washing the well three times with Tris-buffered saline solution (pH 7.5) (washing solution) containing 0.01% Tween 20, rhAPOA4-His prepared in Example 1 or refolded rhAPOA4-His monomer prepared by the method described below was added at a concentration of 450 ng/mL (10 nM) by 50 μL/well, and incubation was performed at room temperature for 1 hour. The refolded rhAPOA4-His monomer was prepared by diluting rhAPOA4-His prepared in Example 1 two-fold with a 50 mM Tris-buffered saline solution (pH 7.5) containing 8 M urea (manufactured by Wako Pure Chemical Industries, Ltd.), leaving at room temperature for 30 minutes, and diluting 50-fold with a 50 mM Tris-buffered saline solution (pH 7.5) (reaction solution) containing 4% Block Ace (manufactured by DS Pharma Biomedical Corporation) and 0.01% Tween 20. After washing the well three times with the washing solution, the culture supernatant of the hybridoma was added to the well and incubation was performed at room temperature for 1 hour. After removing the added culture supernatant, the well was washed three times with the washing solution. A horseradish peroxidase-labeled anti-mouse IgG antibody (manufactured by Jackson ImmunoResearch Laboratories) appropriately diluted with the reaction solution was added at 50 μL/well, incubation was performed at room temperature for 1 hour, and then the well was washed 5 times with the washing solution. […]

rhAPOA4-His dimer = target: T2, rhAPOA4-His dimer (human, UniProt P06727 21-396); test: statement of the description; experiment is the ELISA of Example 4 (FIG. 1)
T2 construct: also called APOA4 dimer; dimer of rhAPOA4-His; not shown: C-terminal histidine tag
T2 sequence: T1 sequence
Method: (§1) 50 μL/well of a 50 mM Tris buffer (pH 7.5) containing 2 μg/mL of an anti-6×His rabbit polyclonal antibody (anti-6×His antibody, manufactured by Bethyl Laboratories) was added to a 96-well plate (manufactured by Nunc), and incubation was performed at 4° C. overnight. After removing the anti-6×His antibody solution, blocking was performed by adding 100 μL/well of 50 mM Tris-buffered saline solution (pH 7.5) containing 0.01% Tween 20 and 5% skim milk, and the plate was left at room temperature for 1 hour. After washing the well three times with a Tris-buffered saline solution (pH 7.5) (washing solution) containing 0.01% Tween 20, the rhAPOA4-His monomer or dimer prepared in Example 2 was diluted so as to be 450 ng/mL with a 50 mM Tris-buffered saline solution (pH 7.5) (reaction solution) containing 1% Block Ace (manufactured by DS Pharma Biomedical) and 0.01% Tween 20, and added thereto at 50 μL/well. After incubating at room temperature for 1 hour, the well was washed three times with the washing solution, and then the anti-human APOA4 monoclonal antibody obtained in Example 3 was diluted with the reaction solution so as to be 1 μg/mL and added thereto at 50 μL/well. After the incubation at room temperature for 1 hour, the well was washed three times with the washing solution. Subsequently, 50 μL/well of a horseradish peroxidase-labeled anti-mouse IgG antibody (manufactured by Jackson ImmunoResearch Laboratories) appropriately diluted with the reaction solution was added, incubation was performed at room temperature for 1 hour, and the well was washed 5 times with the washing solution. 50 μL/well of a TMB (3,3′,5,5′-tetramethylbenzidine) solution was added and incubation was performed at room temperature for 15 minutes. The reaction was stopped by adding 50 μL/well of 1N H₂SO₄ in the equivalent volume to that of the TMB solution, and the absorbance of 450 nm was measured using a microplate reader (manufactured by ThermoFisher Scientific).

rhAPOA4-His monomer = target: T3, rhAPOA4-His monomer (human, UniProt P06727 21-396); test: as above
T3 construct: also called APOA4 monomer; monomer of rhAPOA4-His; not shown: C-terminal histidine tag
T3 sequence: T1 sequence
Method: as §1

APOA4 in human serum [2] = target: T4, APOA4 in human serum (human, UniProt P06727 21-396); test: sandwich ELISA on diluted human serum, labeled detection antibody with No. 30 as capture
T4 construct: Native protein in serum of healthy humans (monomer and dimer); also called human serum APOA4; APOA4 in the specimen
T4 sequence: T1 sequence

APOA4 in human serum [3] = target: T4, APOA4 in human serum; test: sandwich ELISA, labeled detection antibody
Method: (§2) Anti-human APOA monoclonal antibody No. 30 was adjusted to a concentration of 2 μg/mL with a 50 mM Tris buffer solution (pH 7.5). Antibody No. 30 solution was added to a Maxisorp cup (NUNC, manufactured by C8 Maxisorp) at 100 μL/well, the Maxisorp cup was put in a wet box and allowed to stand at 4° C. overnight, and antibody No. 30 was coated on the well. After removing antibody No. 30 solution by suction, a 50 mM Tris-buffered saline solution (pH 7.5) (blocking solution) containing 5% skim milk, 0.1% sodium azide, and 0.01% Tween 20 was added at 200 μL/well, and then the cup was left at room temperature for 2 hours or at 4° C. for 1 day or more (hereinafter, the prepared Maxisorp cup is referred to as “antibody No. 30 cup”). […] After stopping the reaction by injecting 100 μL/well of 0.5 M H₂SO₄, the absorbance was measured at a wavelength of 450 nm, and an APOA concentration was calculated using the rhAPOA4-His of a known concentration as a standard substance.

[4] = target: T5, recombinant human APOA4 in which a histidine tag is bound to the C-terminal of human APOA4 (human, UniProt P06727 21-396); test: HDX-MS of rhAPOA4-His with and without antibody
T5 construct: Secreted from Expi293F cells and purified from the supernatant; Unfractionated mix of monomer and dimer; also called rhAPOA4-His; rhAPOA-His; not shown: C-terminal histidine tag
T5 sequence: T1 sequence
Method: A solution in which about 10 μM of antibody No. 30 or antibody No. 33 were added to 10 μM of rhAPOA4-His and rhAPOA4-His and mixed therewith was diluted 20-fold with a PBS deuterium solution to start a deuteration reaction. As a control, a PBS solution was used.
After 1 minute, 10 minutes, 60 minutes, and 240 minutes at 23° C., an equivalent amount of 500 mM TCEP solution (pH 3 or less) containing cooled 2M guanidine hydrochloride was added to stop the reaction. After digesting the reaction solution with a pepsin column, peptide was separated and eluted by reversed-phase liquid chromatography using a C18 column, and LC-MS/MS measurement was performed with a mass spectrometer.
Each peptide derived from rhAPOA4-His was identified from the mass data, and the amount of deuterium exchange at each reaction time was calculated from the mass value. The peptide in which the amount of deuterium exchange was changed depending on the presence or absence of the antibody was extracted as an estimated epitope region.

APOA4 in human serum [5] = target: T4, APOA4 in human serum; test: sandwich ELISA, capture antibody
Method: as §2

Measured: binding result

B1: anti-APOA4 monoclonal antibody No. 37 (antibody, IgG1, V domains shown)
VH: QVQLQQSGAELVKPGASVKISCKASGYTFSNYWLNWVKLRPGKGLEWIGQIYPGDGDTNYNGKFKGKATLTADKSSSRAYMQLSSLTSEDSAVYFCARRNNYVMDYWGQGTSVTVSS
VL: DIVMTQSHKFMSTSVGDRVSITCKASQDVGTSVAWYQQKLGQSPKLLINWASIRHTGVPDRFTGSGSGTDFSLTISNVQSEDLADHFCQQYSSYPFTFGSGTKLEIK
notes: Mouse hybridoma antibody; also called anti-human APOA4 monoclonal antibody No. 37; HRP-labeled antibody No. 37
binds: [1] | rhAPOA4-His dimer | rhAPOA4-His monomer | APOA4 in human serum [2]

B2: anti-APOA4 monoclonal antibody No. 33 (antibody, IgG1, V domains shown)
VH: QVHLQQSGAELVRPGSSVKISCKASGYAFSIYWMNWVRQRPGQGLEWIGQIYPGDGDTTYNGKFKGKATLTADKSSNTAYMHLSSLTSEDSAVFFCARRGDYVYDYWGQGTTLTVSS
VL: B1 VL with F10L, S32A, L40P, N49Y, I53T, S72T, S76Y, H86Y, S93T
notes: Mouse hybridoma antibody; unlabelled in HDX-MS; also called anti-human APOA4 monoclonal antibody No. 33; HRP-labeled antibody No. 33
not listed: APOA4 in human serum [2] | APOA4 in human serum [5]
binds: all other assays above

B3: anti-APOA4 monoclonal antibody No. 30 (antibody, IgG2b, V domains shown)
VH: EVQLQQSGPELVKPGASVKISCKASGYSFIGYFMSWVKQSHGKSLEWIGRINPYNGDTFYNQKFKGKATLTVDKSSSTAHMELLSLTSEDSAVYYCGRGIIGFDYWGQGTTLTVSS
VL: DIQMTQSPASLSASVGETVTITCRPSENIHSYLAWYHQKQGKSPQLLVYDATTLAEGVPSRFSGSGSGTQFFLKINSLQPEDFGSYYCQHHYVSPWTFGGGTKLEIK
notes: Mouse hybridoma antibody purified with Protein A; Used as capture antibody coated on the well in the sandwich ELISAs; also called anti-human APOA4 monoclonal antibody No. 30; Anti-human APOA monoclonal antibody No. 30
not listed: APOA4 in human serum [2] | APOA4 in human serum [3]
binds: all other assays above
